{"source": "paper PMC12395675", "proteins": {"B1": {"name": "spike (S) protein: N1232Q (protein)", "parent chain": "MKSLTYFWLFLPVLSTLSLPQDVTRCSANTNFRRFFSKFNVQAPAVVVLGGYLPIGENQGVNSTWYCAGQHPTASGVHGIFVSHIRGGHGFEIGISQEPFDPSGYQLYLHKATNGNTNATARLRICQFPSIKTLGPTANNDVTTGRNCLFNKAIPAHMSEHSVVGITWDNDRVTVFSDKIYYFYFKNDWSRVATKCYNSGGCAMQYVYEPTYYMLNVTSAGEDGISYQPCTANCIGYAANVFATEPNGHIPEGFSFNNWFLLSNDSTLVHGKVVSNQPLLVNCLLAIPKIYGLGQFFSFNQTIDGVCNGAAVQRAPEALRFNINDTSVILAEGSIVLHTALGTNFSFVCSNSSDPHLATFATPLGATQVPYYCFLKVDTYNSTVYKFLAILPPTVREIVITKYGDFYVNGFGYLHLGLLDAVTINFTGHGTDDDVSGFWTIASTNFVDALIEVQGTAIQRILYCDDPVSQLKCSQVSFDLDDGFYPISSRNLLSHEQPISFVTLPSFNDHSFVNITVSASFGGHSGANLIASDTTINGFSSFCVETRQFTISLFYNVTNSYGYVSKSQDSNCPFTLQSVNDYLSFSKFCVSTSLLASACTIDLFGYPEFGSGVKFTSLYFQFTKGELITGTPKPLVGVTDVSFMTLDVCTKYTIYGFKGEGIITLTNSSFLAGIYYTSDSGQLLAFKNVTSGAVYSVTPCSFSEQAAYVDDDIVGVISSLSNSTFNSTRELPGFFYHSNDGSNCTEPVLVYSNIGVCKSGSIGYVLSKSGQVKIAPTVTGNISIPTNFSMSIRTEYLQLYNTPVSVDCATYVCNGNSRCKQLLTQYIAACKTIESALQLSARLESAEVNSMLTISEEALQLATISSFNGDGYNFTNVLGVSVRDPASGRVVQKRSFIEDLLFNKVVTNGLGTVDEDYKRCSNGRSVADLVCAQYYSGVMVLPGVVDAEKLHMYSASLIGGMVLGGFTAAAALPFSYAVQARLNYLALQTDVLQRNQQLLAESFNSAIGDITSAFESVKEAISQTSKGLNTVAHALTKVQEVVNSQGAALTQLTVQLQHNFQAISSSIDDIYSRLDILSADVQVDRLITGRLSALNAFVAQTLTKYTEVQASRKLAQQKVNECVKSQSQRYGFCGGDGEHIFSLVQAAPQGLLFLHTVLVPGDFVDVIAIAGLCVNDEIALTLREPGLVLFTHELQNHTATEYFVSSRRMFEPRKPTVSDFVQIESCVVTYVNLTRDQLPDVIPDYIDVNKTLYEILASLPNRTGPSLPLDVFNATYLNLTGEIADLEQRSESLRNTTEELQSLIYNINNTLVDLEWLNRVETYIKWPWWVWLIIFIVLIFVVSLLVFCCISTGCCGCCGCCGACFAGCCRGPRLQPYEAFEKVHVQ"}, "B2": {"name": "spike (S) protein: N1249Q (protein)", "parent chain": "B1 parent chain"}, "B3": {"name": "spike (S) protein: N118Q (protein)", "parent chain": "B1 parent chain"}, "B4": {"name": "spike (S) protein: N216Q (protein)", "parent chain": "B1 parent chain"}, "B5": {"name": "spike (S) protein: N726Q (protein)", "parent chain": "B1 parent chain"}, "B6": {"name": "spike (S) protein: N514Q (protein)", "parent chain": "B1 parent chain"}, "B7": {"name": "spike (S) protein: N556Q (protein)", "parent chain": "B1 parent chain"}, "B8": {"name": "spike (S) protein: N62Q (protein)", "parent chain": "B1 parent chain"}, "B9": {"name": "spike (S) protein: N381Q (protein)", "parent chain": "B1 parent chain"}, "B10": {"name": "spike (S) protein: N351Q (protein)", "parent chain": "B1 parent chain"}, "B11": {"name": "spike (S) protein: N1196Q (protein)", "parent chain": "B1 parent chain"}, "B12": {"name": "spike (S) protein: N300Q (protein)", "parent chain": "B1 parent chain"}, "B13": {"name": "spike (S) protein: N425Q (protein)", "parent chain": "B1 parent chain"}, "B14": {"name": "spike (S) protein: N688Q (protein)", "parent chain": "B1 parent chain"}, "B15": {"name": "spike (S) protein: N344Q (protein)", "parent chain": "B1 parent chain"}, "B16": {"name": "spike (S) protein: N781Q (protein)", "parent chain": "B1 parent chain"}, "B17": {"name": "spike (S) protein: N1278Q (protein)", "parent chain": "B1 parent chain"}, "B18": {"name": "spike (S) protein: N743Q (protein)", "parent chain": "B1 parent chain"}, "B19": {"name": "spike (S) protein: N1261Q (protein)", "parent chain": "B1 parent chain"}, "B20": {"name": "spike (S) protein: N873Q (protein)", "parent chain": "B1 parent chain"}, "B21": {"name": "spike (S) protein: N324Q (protein)", "parent chain": "B1 parent chain"}}}
{"experiment": "anti-PEDV N immunofluorescence of intestine sections", "details": "glycan lost; control: rPEDV-WT"}
{"protein": "B1", "other: intestinal viral antigen": "abolishes"}
{"protein": "B2", "other: intestinal viral antigen": "abolishes"}
{"experiment": "CHX chase, anti-Flag western blot, 293T", "details": "glycan lost; control: WT S protein"}
{"protein": "B3", "degradation_or_half_life": "no change"}
{"protein": "B1", "degradation_or_half_life": "no change"}
{"protein": "B4", "degradation_or_half_life": "no change"}
{"protein": "B2", "degradation_or_half_life": "no change"}
{"protein": "B5", "degradation_or_half_life": "no change"}
{"experiment": "viral titre in LLC-PK1 cells", "details": "glycan lost; control: rPEDV-WT"}
{"protein": "B3", "other: viral replication": "decreases"}
{"protein": "B1", "other: viral replication": "decreases"}
{"protein": "B4", "other: viral replication": "decreases"}
{"protein": "B2", "other: viral replication": "decreases"}
{"protein": "B5", "other: viral replication": "decreases"}
{"experiment": "37 °C 30 min, citrate wash, RT-qPCR", "details": "glycan lost; control: rPEDV-WT"}
{"protein": "B3", "other: viral internalization": "decreases"}
{"protein": "B1", "other: viral internalization": "decreases"}
{"protein": "B4", "other: viral internalization": "decreases"}
{"experiment": "BAC transfection of Vero cells; CPE, western blot", "details": "glycan lost; control: rPEDV-WT"}
{"protein": "B6", "other: virus rescue (viability), other: viruses recovered/attempts": "no change"}
{"protein": "B7", "other: virus rescue (viability), other: viruses recovered/attempts": "no change"}
{"protein": "B8", "other: virus rescue (viability), other: viruses recovered/attempts": "no change"}
{"protein": "B9", "other: virus rescue (viability), other: viruses recovered/attempts": "no change"}
{"protein": "B10", "other: virus rescue (viability), other: viruses recovered/attempts": "no change"}
{"protein": "B11", "other: virus rescue (viability), other: viruses recovered/attempts": "no change"}
{"protein": "B12", "other: virus rescue (viability), other: viruses recovered/attempts": "no change"}
{"protein": "B3", "other: virus rescue (viability), other: viruses recovered/attempts": "no change"}
{"protein": "B13", "other: virus rescue (viability), other: viruses recovered/attempts": "abolishes"}
{"protein": "B1", "other: virus rescue (viability), other: viruses recovered/attempts": "no change"}
{"protein": "B14", "other: virus rescue (viability), other: viruses recovered/attempts": "no change"}
{"protein": "B15", "other: virus rescue (viability), other: viruses recovered/attempts": "no change"}
{"protein": "B16", "other: virus rescue (viability), other: viruses recovered/attempts": "no change"}
{"protein": "B17", "other: virus rescue (viability), other: viruses recovered/attempts": "no change"}
{"protein": "B18", "other: virus rescue (viability), other: viruses recovered/attempts": "no change"}
{"protein": "B4", "other: virus rescue (viability), other: viruses recovered/attempts": "no change"}
{"protein": "B19", "other: virus rescue (viability), other: viruses recovered/attempts": "no change"}
{"protein": "B20", "other: virus rescue (viability), other: viruses recovered/attempts": "abolishes"}
{"protein": "B21", "other: virus rescue (viability), other: viruses recovered/attempts": "no change"}
{"protein": "B2", "other: virus rescue (viability), other: viruses recovered/attempts": "no change"}
{"protein": "B5", "other: virus rescue (viability), other: viruses recovered/attempts": "no change"}
{"experiment": "RT-qPCR of intestinal tissues at 5 dpc", "details": "glycan lost; control: rPEDV-WT"}
{"protein": "B3", "other: intestinal viral load": "no change"}
{"protein": "B1", "other: intestinal viral load": "decreases"}
{"protein": "B4", "other: intestinal viral load": "no change"}
{"protein": "B2", "other: intestinal viral load": "decreases"}
{"protein": "B5", "other: intestinal viral load": "no change"}
{"experiment": "viral titre at 24 hpi, MOI 0.01", "details": "glycan lost; control: rPEDV-WT"}
{"protein": "B6", "other: viral replication": "no change"}
{"protein": "B7", "other: viral replication": "no change"}
{"protein": "B8", "other: viral replication": "no change"}
{"protein": "B9", "other: viral replication": "no change"}
{"protein": "B10", "other: viral replication": "no change"}
{"protein": "B11", "other: viral replication": "no change"}
{"protein": "B12", "other: viral replication": "no change"}
{"protein": "B3", "other: viral replication": "decreases"}
{"protein": "B1", "other: viral replication": "decreases"}
{"protein": "B14", "other: viral replication": "no change"}
{"protein": "B15", "other: viral replication": "no change"}
{"protein": "B16", "other: viral replication": "no change"}
{"protein": "B17", "other: viral replication": "no change"}
{"protein": "B18", "other: viral replication": "no change"}
{"protein": "B4", "other: viral replication": "decreases"}
{"protein": "B19", "other: viral replication": "no change"}
{"protein": "B21", "other: viral replication": "no change"}
{"protein": "B2", "other: viral replication": "decreases"}
{"protein": "B5", "other: viral replication": "decreases"}
{"experiment": "H&E staining of intestine at 5 dpc", "details": "glycan lost; control: rPEDV-WT"}
{"protein": "B1", "other: intestinal histopathology": "abolishes"}
{"protein": "B2", "other: intestinal histopathology": "abolishes"}
{"experiment": "oral challenge; fecal scores, gross necropsy", "details": "glycan lost; control: rPEDV-WT"}
{"protein": "B3", "other: virulence in animals": "decreases"}
{"protein": "B1", "other: virulence in animals": "decreases"}
{"protein": "B4", "other: virulence in animals": "decreases"}
{"protein": "B2", "other: virulence in animals": "decreases"}
{"protein": "B5", "other: virulence in animals": "decreases"}
{"experiment": "4 °C binding, RT-qPCR of PEDV N", "details": "glycan lost; control: rPEDV-WT"}
{"protein": "B3", "other: viral attachment": "decreases"}
{"protein": "B1", "other: viral attachment": "no change"}
{"protein": "B2", "other: viral attachment": "no change"}
{"experiment": "plaque morphology assay, ImageJ", "details": "glycan lost; control: rPEDV-WT"}
{"protein": "B3", "other: plaque size": "decreases"}
{"protein": "B1", "other: plaque size": "decreases"}
{"protein": "B4", "other: plaque size": "decreases"}
{"protein": "B2", "other: plaque size": "decreases"}
{"protein": "B5", "other: plaque size": "decreases"}
{"experiment": "RT-qPCR of rectal swabs", "details": "glycan lost; control: rPEDV-WT"}
{"protein": "B1", "other: faecal viral shedding": "decreases"}
{"protein": "B2", "other: faecal viral shedding": "decreases"}
